According to US20220119534A1 (DRAGONFLY THERAPEUTICS, published 2022):
Where a chain is given by its changes, count along the chain named. In names and notes the source's numbering stands. Several values for one entry are separate records, joined by “and”; a condition that tells them apart may be missing. Equal entries are not always repeated. One block for each binder: values may come before it.

Experiments:
Human CLEC12A-His [1] = target: T1, Human CLEC12A-His (human, UniProt Q5QGZ9 65-265); experiment: cell-based or functional assay
T1 sequence: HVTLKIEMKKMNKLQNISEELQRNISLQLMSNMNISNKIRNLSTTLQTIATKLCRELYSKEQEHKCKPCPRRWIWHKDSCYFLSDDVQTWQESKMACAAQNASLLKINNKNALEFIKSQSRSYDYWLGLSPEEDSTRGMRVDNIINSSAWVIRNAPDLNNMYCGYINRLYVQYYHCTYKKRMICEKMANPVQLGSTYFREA

mFc-cNKG2D = target: T2, mFc-cNKG2D (cynomolgus monkey, UniProt P61252 73-216); experiment: SPR Biacore 37 C; mFc-tagged cyno NKG2D dimer, TriNKET as analyte; kinetics fit; average of 4
T2 construct: extracellular domain; Made in house (Dragonfly Tx); also called recombinant cyno NKG2D extracellular domain (ECD); mFc-tagged cyno NKG2D dimer; not shown: mouse Fc tag
T2 sequence (looked up): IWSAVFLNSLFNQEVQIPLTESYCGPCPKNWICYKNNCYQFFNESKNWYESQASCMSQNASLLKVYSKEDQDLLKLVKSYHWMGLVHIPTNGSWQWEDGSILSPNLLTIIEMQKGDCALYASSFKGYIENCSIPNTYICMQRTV

mFc-hNKG2D [2] = target: T3, mFc-hNKG2D (human, UniProt P26718 73-216); experiment: SPR Biacore 8K 37 C; mFc-hNKG2D captured on anti-mFc chip, TriNKET as analyte; steady state affinity fit; average of 4
T3 construct: extracellular domain; Made in house (Dragonfly Tx); the order of tag and ECD follows the name mFc-hNKG2D; also called mFc-tagged human NKG2D; not shown: mouse Fc tag
T3 sequence (looked up): T2 sequence (looked up) with N43D, I133T

mFc-hNKG2D [3] = target: T3, mFc-hNKG2D; experiment: SPR Biacore 8K 37 C; mFc-hNKG2D captured on anti-mFc chip, TriNKET as analyte; steady state fit; after low pH hold, n=3
[4] = target: T4, Human CLEC12A expressed on cells (Ba/F3-hCLEC12A, PL21, HL60) (human, UniProt Q5QGZ9 1-265); experiment: cell-based or functional assay
T4 sequence: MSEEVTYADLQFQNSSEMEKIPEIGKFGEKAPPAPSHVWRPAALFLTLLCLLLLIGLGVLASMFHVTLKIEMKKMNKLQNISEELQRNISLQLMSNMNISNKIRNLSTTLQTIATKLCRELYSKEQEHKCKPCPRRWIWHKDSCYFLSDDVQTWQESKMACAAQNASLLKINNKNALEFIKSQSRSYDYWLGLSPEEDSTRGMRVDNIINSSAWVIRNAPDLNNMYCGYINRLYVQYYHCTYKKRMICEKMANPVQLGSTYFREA

[5] = target: T5, mFc-hNKG2D (recombinant mFc-tagged human NKG2D dimer) (human, UniProt P26718 73-216); experiment: SPR; after 4 wks 40C in HST pH 6.0
T5 construct: extracellular domain; Made in house; not shown: mouse Fc tag
T5 sequence (looked up): T2 sequence (looked up) with N43D, I133T

[6] = target: T6, Human CD16a V158 (FcγRIIIa V158) (human, UniProt P08637 17-208, biotinylated); experiment: SPR; after 4 wks 40C in HST pH 6.0
T6 construct: Bought recombinant receptor; also called hCD16aV; hFcγRIIIa V158
T6 sequence (P08637 17-208 F176V limits assumed): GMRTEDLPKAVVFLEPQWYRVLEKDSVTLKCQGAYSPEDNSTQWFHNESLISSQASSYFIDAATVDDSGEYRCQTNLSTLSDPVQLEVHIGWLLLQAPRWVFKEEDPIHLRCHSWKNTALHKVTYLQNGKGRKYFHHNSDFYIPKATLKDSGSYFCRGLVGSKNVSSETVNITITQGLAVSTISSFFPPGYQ

[7] = target: T7, Human CLEC12A-His (recombinant, K244 WT) (human, UniProt Q5QGZ9 65-265); experiment: SPR, two-state fit (kd1); after pH 5.0, 40C, 2 wks
T7 construct: Made in house (Dragonfly Tx); also called hCLEC12A; hCLEC12A-His; not shown: His tag
T7 sequence: T1 sequence

Human CLEC12A-His [8] = target: T8, Human CLEC12A-His (human, UniProt Q5QGZ9 65-265); experiment: SPR; control sample (pH 5 stress study)
T8 construct: Recombinant soluble protein made in house; also called hCLEC12A-His; hCLEC12A; not shown: His tag
T8 sequence: T1 sequence

mFc-hNKG2D [9] = target: T9, mFc-hNKG2D (human, UniProt P26718 73-216); experiment: SPR; control sample (pH 5 stress study)
T9 construct: extracellular domain; Recombinant mFc-tagged NKG2D dimer, made in house; also called human NKG2D; not shown: mouse Fc tag
T9 sequence (looked up): T2 sequence (looked up) with N43D, I133T

Human CD16a V158 = target: T10, Human CD16a V158 (human, UniProt P08637 17-208, biotinylated); experiment: SPR; control sample (pH 5 stress study)
T10 construct: Bought recombinant receptor; also called hCD16a (V158); hFcγRIIIa V158
T10 sequence (P08637 17-208 F176V limits assumed): as above

Human CLEC12A-His [10] = target: T8, Human CLEC12A-His; experiment: SPR, 37 C, AB0192 captured, hCLEC12A-His analyte; average of 3 replicates
[11] = target: T11, recombinant human CLEC12A-His (human, UniProt Q5QGZ9 65-265); experiment: SPR 37C, average
T11 construct: also called hCLEC12A-His; hCLEC12A
T11 sequence: T1 sequence

[12] = target: T12, recombinant human CD32a H131 (human, UniProt P12318 36-218, limits assumed, biotinylated); experiment: SPR 25C, steady state
T12 construct: also called FcγRIIa H131
T12 sequence (looked up): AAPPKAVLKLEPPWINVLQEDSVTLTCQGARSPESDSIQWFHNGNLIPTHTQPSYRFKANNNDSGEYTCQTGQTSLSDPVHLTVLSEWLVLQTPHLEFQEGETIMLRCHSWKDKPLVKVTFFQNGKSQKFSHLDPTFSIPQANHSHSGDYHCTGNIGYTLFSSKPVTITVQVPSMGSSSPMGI

recombinant human CD64 = target: T13, recombinant human CD64 (human, UniProt P12314 16-288, biotinylated); experiment: SPR 25C, kinetic fit, average
T13 construct: also called hFcγRI; hCD64
T13 sequence (P12314 16-288 limits assumed): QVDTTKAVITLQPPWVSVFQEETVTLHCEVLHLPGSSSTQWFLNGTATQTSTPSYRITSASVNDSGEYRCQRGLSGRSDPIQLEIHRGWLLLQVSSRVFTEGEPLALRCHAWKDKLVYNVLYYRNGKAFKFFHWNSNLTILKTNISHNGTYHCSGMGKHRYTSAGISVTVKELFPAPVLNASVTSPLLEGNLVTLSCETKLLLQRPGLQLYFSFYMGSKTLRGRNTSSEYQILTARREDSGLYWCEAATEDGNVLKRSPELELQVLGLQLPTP

Kd (mFc-cNKG2D): 0.839 µM
Kd (mFc-hNKG2D [2]): 0.727 µM
Kd (mFc-hNKG2D [3]): 0.672 µM
B1: F3'-1602 TriNKET (bispecific antibody, human IgG1, kappa)
chain: QLQLQESGPGLVKPSETLSLTCTVSGFSLTNYGLHWIRQPPGKCLEWIGVIWSGGKTDYNPSLKSRVTISKDTSKNQFSLKLSSVQAADTAVYYCAKYDYDDSLDYWGQGTLVTVSSGGGGSGGGGSGGGGSGGGGSDIQMTQSPSSLSASVGDRVTITCHASQNINFWLSWYQQKPGKAPKLLIYEASNLHTGVPSRFSGSGSGTRFTLTISSLQPEDIATYYCQQSHSYPLTFGCGTKLEIKGSDKTHTCPPCPAPELLGGPSVFLFPPKPKDTLMISRTPEVTCVVVDVSHEDPEVKFNWYVDGVEVHNAKTKPREEQYNSTYRVVSVLTVLHQDWLNGKEYKCKVSNKALPAPIEKTISKAKGQPREPRVYTLPPCRDELTKNQVSLTCLVKGFYPSDIAVEWESNGQPENNYKTTPPVLVSDGSFTLYSKLTVDKSRWQQGNVFSCSVMHEALHNHYTQKSLSLSPG
heavy: EVQLVESGGGLVKPGGSLRLSCAASGFTFSSYSMNWVRQAPGKGLEWVSSISSSSSYIYYADSVKGRFTISRDNAKNSLYLQMNSLRAEDTAVYYCARGAPIGAAAGWFDPWGQGTLVTVSSASTKGPSVFPLAPSSKSTSGGTAALGCLVKDYFPEPVTVSWNSGALTSGVHTFPAVLQSSGLYSLSSVVTVPSSSLGTQTYICNVNHKPSNTKVDKKVEPKSCDKTHTCPPCPAPELLGGPSVFLFPPKPKDTLMISRTPEVTCVVVDVSHEDPEVKFNWYVDGVEVHNAKTKPREEQYNSTYRVVSVLTVLHQDWLNGKEYKCKVSNKALPAPIEKTISKAKGQPREPQVCTLPPSRDELTENQVSLTCLVKGFYPSDIAVEWESNGQPENNYKTTPPVLDSDGSFFLYSWLTVDKSRWQQGNVFSCSVMHEALHNHYTQKSLSLSPG
light: DIQMTQSPSSVSASVGDRVTITCRASQGISSWLAWYQQKPGKAPKLLIYAASSLQSGVPSRFSGSGSGTDFTLTISSLQPEDFATYYCQQGVSFPRTFGGGTKVEIKRTVAAPSVFIFPPSDEQLKSGTASVVCLLNNFYPREAKVQWKVDNALQSGNSQESVTEQDSKDSTYSLSSTLTLSKADYEKHKVYACEVTHQGLSSPVTKSFNRGEC
notes: Trispecific F3' format: CLEC12A scFv-Fc paired with NKG2D Fab-Fc; Stressed and control samples of the stability studies are the same molecule; also called AB0237
EC50 (nM), KHYG-1-CD16aV cytotoxicity assay, PL-21 cells (Human CLEC12A-His [1]): 0.12 nM

Kd [5]: 0.796 µM
koff [5]: 0.132 s⁻¹
kon [5]: 166000 M⁻¹ s⁻¹
Kd [6]: 0.359 µM
koff [6]: 0.0284 s⁻¹
kon [6]: 79300 M⁻¹ s⁻¹
koff [7]: 0.0427 s⁻¹
B2: AB0089 TriNKET (bispecific antibody, human IgG1, kappa)
chain: B1 chain with S53V, K56A, K71V, Y98G, D101G, S103T, R207D, I220F
heavy: B1 heavy
light: B1 light
notes: F3' format heterodimer of three chains; human IgG1 Fc with EW-RVT and Y349C/S354C mutations; also called AB0089 Lot AB0089-002; CLEC12A TriNKET AB0089
EC50, KHYG-1-CD16aV cytotoxicity assay; after pH 5.0, 40C, 2 wks [4]: 0.16 nM
EC50, KHYG-1-CD16aV cytotoxicity assay; control sample [4]: 0.00011 µM

Kd (Human CLEC12A-His [8]): 0.00168 µM
koff (Human CLEC12A-His [8]): 0.00129 s⁻¹
kon (Human CLEC12A-His [8]): 771000 M⁻¹ s⁻¹
Kd (mFc-hNKG2D [9]): 0.588 µM
koff (mFc-hNKG2D [9]): 0.122 s⁻¹
kon (mFc-hNKG2D [9]): 208000 M⁻¹ s⁻¹
Kd (Human CD16a V158): 0.171 µM
koff (Human CD16a V158): 0.0199 s⁻¹
kon (Human CD16a V158): 117000 M⁻¹ s⁻¹
Kd (Human CLEC12A-His [10]): 0.00181 µM
koff (Human CLEC12A-His [10]): 0.0014 s⁻¹
kon (Human CLEC12A-His [10]): 776000 M⁻¹ s⁻¹
B3: AB0192 TriNKET (other)
chain: EVQLVESGGGVVQPGGSLRLSCAASGFTFNAFGMHWVRQAPGKCLEWVAFISSGSTSIYYANTVKGRFTISRDNSKNTLYLQMNSLRAEDTAVYYCARDGYPTGGAMDYWGQGTSVTVSSGGGGSGGGGSGGGGSGGGGSDIQMTQSPSSLSASVGDRVTITCKASQDIYNYLSWFQQKPGKAPKPLIYRANILVSGVPSRFSGSGSGQDYTFTISSLQPEDIATYYCLQFDAFPFTFGCGTKLEIKGSDKTHTCPPCPAPELLGGPSVFLFPPKPKDTLMISRTPEVTCVVVDVSHEDPEVKFNWYVDGVEVHNAKTKPREEQYNSTYRVVSVLTVLHQDWLNGKEYKCKVSNKALPAPIEKTISKAKGQPREPRVYTLPPCRDELTKNQVSLTCLVKGFYPSDIAVEWESNGQPENNYKTTPPVLVSDGSFTLYSKLTVDKSRWQQGNVFSCSVMHEALHNHYTQKSLSLSPG
heavy: B1 heavy
light: B1 light
notes: the condition stands under assay; also called AB0192 Lot AB0192-005

Kd [11]: 0.00057 µM
koff [11]: 0.000494 s⁻¹
kon [11]: 844000 M⁻¹ s⁻¹
Kd [12]: 0.9 µM and 0.8 µM
Kd (recombinant human CD64): 0.0052 µM
koff (recombinant human CD64): 0.00027 s⁻¹
kon (recombinant human CD64): 52000 M⁻¹ s⁻¹
B4: F3'-1602 TriNKET (other)
chain: B1 chain
heavy: B1 heavy
light: B1 light
notes: CLEC12A scFv-Fc, NKG2D A49MI Fab-Fc, human IgG1 Fc; also called AB0237
